Experimental data as given in US20230192857A1.

How the values were obtained:
[1] = target: JAK1 kinase domain (JH1) (Homo sapiens) (UniProt P23458); assay: cell-based or functional assay
[2] = target: JAK1-Y1034 phosphopeptide with an alanine substitution at the +3 position (UniProt P23458); assay: ITC
[3] = target: phosphopeptide corresponding to Tyr1034 within the JAK1 kinase domain activation loop (UniProt P23458); assay: ITC

hCIS-SH2-BC complex (recombinant trimeric complex of human GST-CIS-SH2 construct with Elongins B and C) (from UniProt Q9NSE2 66-258; Q15370 1-118; Q15369 17-112)
efficiency of JAK1 JH1 kinase inhibition relative to SOCS1 [1]: 100 fold lower
fold selectivity of kinase inhibition, JAK1 against JAK2, JAK3 or TYK2 (JH1 domains) [1]: > 20 fold

human CIS lacking both the N-terminal region and the PEST motif (ΔNT/ΔPEST), trimeric complex with elongins B and C (from UniProt Q9NSE2 67-258; Q15370 1-118; Q15369 17-112)
fold reduction of binding against the wild-type JAK1-Y1034 phosphopeptide [2]: 4 fold

human CIS lacking the N-terminal 34 residues (ΔN34), trimeric complex with elongins B and C (from UniProt Q9NSE2 35-258; Q15370 1-118; Q15369 17-112)
Kd [3]: 2.2 to 10 µM
